Results as given in patent US20240252614A1.

Key:
Conditions in all cases: remark: other sources report otherwise
[1] = target: hMPV A F WT Control (hMPV A), Q6WB98; test: BLI, no stress
hMPV052 (hMPV A), Q6WB98 = test: BLI, no stress
hMPV059 (hMPV A), Q6WB98 = test: BLI, no stress
hMPV050 (hMPV A), Q6WB98 [2] = test: BLI, no stress
hMPV043 (hMPV A), Q6WB98 [3] = test: BLI, no stress
hMPV046 (hMPV A), Q6WB98 = test: BLI, no stress
hMPV062 (hMPV A), Q6WB98 = test: BLI, no stress
hMPV055 (hMPV A), Q6WB98 [4] = test: BLI, no stress
hMPV053 (hMPV A), Q6WB98 [5] = test: BLI, no stress
hMPV060 (hMPV A), Q6WB98 [6] = test: BLI, no stress
hMPV058 (hMPV A), Q6WB98 [7] = test: BLI, no stress
hMPV069 (hMPV A), Q6WB98 = test: BLI, no stress
hMPV068 (hMPV A), Q6WB98 = test: BLI, no stress
hMPV067 (hMPV A), Q6WB98 [8] = test: BLI, no stress
hMPV047 (hMPV A), Q6WB98 [9] = test: BLI, no stress
hMPV049 (hMPV A), Q6WB98 [10] = test: BLI, no stress
hMPV044 (hMPV A), Q6WB98 [11] = test: BLI, no stress
hMPV054 (hMPV A), Q6WB98 [12] = test: BLI, no stress
hMPV071 (hMPV A), Q6WB98 [13] = test: BLI, no stress
hMPV048 (hMPV A), Q6WB98 = test: BLI, no stress
hMPV061 (hMPV A), Q6WB98 [14] = test: BLI, no stress
hMPV077 (hMPV A), Q6WB98 [15] = test: BLI, no stress
hMPV045 (hMPV A), Q6WB98 = test: BLI, no stress
hMPV063 (hMPV A), Q6WB98 [16] = test: BLI, no stress
hMPV050 (hMPV A), Q6WB98 [17] = test: BLI, 53C stress
hMPV043 (hMPV A), Q6WB98 [18] = test: BLI, 53C stress
hMPV066 (hMPV A), Q6WB98 = test: BLI, 53C stress
hMPV055 (hMPV A), Q6WB98 [19] = test: BLI, 53C stress
hMPV053 (hMPV A), Q6WB98 [20] = test: BLI, 53C stress
hMPV060 (hMPV A), Q6WB98 [21] = test: BLI, 53C stress
hMPV058 (hMPV A), Q6WB98 [22] = test: BLI, 53C stress
hMPV067 (hMPV A), Q6WB98 [23] = test: BLI, 53C stress
hMPV047 (hMPV A), Q6WB98 [24] = test: BLI, 53C stress
hMPV049 (hMPV A), Q6WB98 [25] = test: BLI, 53C stress
hMPV044 (hMPV A), Q6WB98 [26] = test: BLI, 53C stress
hMPV054 (hMPV A), Q6WB98 [27] = test: BLI, 53C stress
hMPV071 (hMPV A), Q6WB98 [28] = test: BLI, 53C stress
hMPV061 (hMPV A), Q6WB98 [29] = test: BLI, 53C stress
hMPV077 (hMPV A), Q6WB98 [30] = test: BLI, 53C stress
hMPV063 (hMPV A), Q6WB98 [31] = test: BLI, 53C stress
[32] = target: hMPV A F WT Control (hMPV A), Q6WB98; test: BLI, 68C stress
hMPV080 (hMPV A), Q6WB98 [33] = test: BLI, 68C stress
[34] = target: hMPV A F WT Control (hMPV A), Q6WB98; test: BLI, no stress; remark: listed apart in the source
hMPV080 (hMPV A), Q6WB98 [35] = test: BLI, no stress

B1: MPE8 mAb (antibody, V domains shown)
VH: EVQLVESGGGLVKPGGSLRLSCAASGFTFSSYSMNWVRQAPGKGLEWVSSISASSSYSDYADSAKGRFTISRDNAKTSLFLQMNSLRAEDTAIYFCARARATGYSSITPYFDIWGQGTLVTVSS
VL: QSVVTQTPSVSGAPGQRVTISCTGSSSNIGAGYDVHWYQQLPGTAPKLLIYDNNNRPSGVPDRFSASKSGTSASLAITGLQAEDEADYYCQSYDRNLSGVFGTGTKVTVL
B1 showed a Response Shift [1] of 0.69 nm, a Response Shift (hMPV052 (hMPV A), Q6WB98) of 0.716 nm and a Response Shift (hMPV059 (hMPV A), Q6WB98) of 0.666 nm. For the same binder, the Response Shift (hMPV050 (hMPV A), Q6WB98 [2]) was 0.641 nm, the Response Shift (hMPV043 (hMPV A), Q6WB98 [3]) was 0.558 nm and the Response Shift (hMPV046 (hMPV A), Q6WB98) was 0.603 nm. For the same binder, the Response Shift (hMPV062 (hMPV A), Q6WB98) was 0.713 nm, the Response Shift (hMPV055 (hMPV A), Q6WB98 [4]) was 0.581 nm and the Response Shift (hMPV053 (hMPV A), Q6WB98 [5]) was 0.624 nm. The Response Shift (hMPV060 (hMPV A), Q6WB98 [6]) was 0.84 nm, the Response Shift (hMPV058 (hMPV A), Q6WB98 [7]) was 0.684 nm and the Response Shift (hMPV069 (hMPV A), Q6WB98) was 0.651 nm. The Response Shift (hMPV068 (hMPV A), Q6WB98) was 0.738 nm, the Response Shift (hMPV067 (hMPV A), Q6WB98 [8]) was 0.744 nm and the Response Shift (hMPV047 (hMPV A), Q6WB98 [9]) was 0.259 nm. For the same binder, the Response Shift (hMPV049 (hMPV A), Q6WB98 [10]) was 0.672 nm, the Response Shift (hMPV044 (hMPV A), Q6WB98 [11]) was 0.72 nm and the Response Shift (hMPV054 (hMPV A), Q6WB98 [12]) was 0.73 nm. For the same binder, the Response Shift (hMPV071 (hMPV A), Q6WB98 [13]) was 0.804 nm, the Response Shift (hMPV048 (hMPV A), Q6WB98) was 0.596 nm and the Response Shift (hMPV061 (hMPV A), Q6WB98 [14]) was 0.813 nm. It also gave a Response Shift (hMPV077 (hMPV A), Q6WB98 [15]) of 0.706 nm, a Response Shift (hMPV045 (hMPV A), Q6WB98) of 0.603 nm and a Response Shift (hMPV063 (hMPV A), Q6WB98 [16]) of 0.849 nm. For the same binder, the Response Shift (hMPV050 (hMPV A), Q6WB98 [17]) was -0.014 nm, the Response Shift (hMPV043 (hMPV A), Q6WB98 [18]) was 0.01 nm and the Response Shift (hMPV066 (hMPV A), Q6WB98) was -0.003 nm. The Response Shift (hMPV055 (hMPV A), Q6WB98 [19]) was -0.078 nm, the Response Shift (hMPV053 (hMPV A), Q6WB98 [20]) was -0.032 nm and the Response Shift (hMPV060 (hMPV A), Q6WB98 [21]) was -0.06 nm. For the same binder, the Response Shift (hMPV058 (hMPV A), Q6WB98 [22]) was -0.05 nm, the Response Shift (hMPV067 (hMPV A), Q6WB98 [23]) was -0.041 nm and the Response Shift (hMPV047 (hMPV A), Q6WB98 [24]) was -0.051 nm. For the same binder, the Response Shift (hMPV049 (hMPV A), Q6WB98 [25]) was -0.065 nm, the Response Shift (hMPV044 (hMPV A), Q6WB98 [26]) was 0.534 nm and the Response Shift (hMPV054 (hMPV A), Q6WB98 [27]) was -0.064 nm. The Response Shift (hMPV071 (hMPV A), Q6WB98 [28]) was -0.039 nm, the Response Shift (hMPV061 (hMPV A), Q6WB98 [29]) was -0.059 nm and the Response Shift (hMPV077 (hMPV A), Q6WB98 [30]) was -0.041 nm. It also gave a Response Shift (hMPV063 (hMPV A), Q6WB98 [31]) of -0.008 nm, a Response Shift [32] of 0.025 nm and a Response Shift (hMPV080 (hMPV A), Q6WB98 [33]) of -0.075 nm. For the same binder, the Response Shift [34] was 0.102 nm and the Response Shift (hMPV080 (hMPV A), Q6WB98 [35]) was 0.787 nm.
